Laboratory results as given in the supplement of paper PMC9112550, “Optimization of the antimicrobial peptide Bac7 by deep mutational scanning” (BMC Biology, 2022).

Test system: Escherichia coli TOP10
Assay: shrunken log2 fold change of peptide-encoding DNA abundance (4.5 h post-induction vs induction); higher = less antimicrobial activity (less host growth inhibition)
Details: time post-induction: 4.5 h; library: site-saturation at positions 5, 18, 19, 20
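Further: peptides expressed intracellularly from a pBAD plasmid library in pooled LB shake-flask culture, induced with 0.3% L-arabinose, DNA abundance read by NGS, three biological replicates, DESeq2 with apeglm shrinkage.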

Row | Sequence | shrunken log2 fold change
1 | RRIRQRPPRLPRPRPRPGQWPRP | 0.00718
2 | RRIRLRPPRLPRPRPRPGMLPRP | 0.0285
3 | RRIRVRPPRLPRPRPRPEDGPRP | -0.263
4 | RRIRIRPPRLPRPRPRPWFTPRP | -0.563
5 | RRIRWRPPRLPRPRPRPQDKPRP | -0.208
6 | RRIRVRPPRLPRPRPRPFYAPRP | -0.357
7 | RRIRNRPPRLPRPRPRPPVRPRP | 0.489
8 | RRIRCRPPRLPRPRPRPFQTPRP | -0.153
9 | RRIRARPPRLPRPRPRPSTCPRP | 0.0421
10 | RRIRHRPPRLPRPRPRPLYTPRP | -0.57
11 | RRIRLRPPRLPRPRPRPCFYPRP | -0.504
12 | RRIRIRPPRLPRPRPRPQLAPRP | -0.0191
13 | RRIRKRPPRLPRPRPRPNWLPRP | 0.246
14 | RRIRVRPPRLPRPRPRPPHAPRP | 0.351
15 | RRIRKRPPRLPRPRPRPSFEPRP | 0.000728
16 | RRIRLRPPRLPRPRPRPSPAPRP | 0.254
17 | RRIRNRPPRLPRPRPRPYCWPRP | -0.425
18 | RRIRTRPPRLPRPRPRPKVYPRP | 0.0324
19 | RRIRWRPPRLPRPRPRPYFFPRP | -0.245
20 | RRIRPRPPRLPRPRPRPSGFPRP | 0.241
21 | RRIRYRPPRLPRPRPRPIFAPRP | 0.159
22 | RRIRERPPRLPRPRPRPQATPRP | -0.0202
23 | RRIRVRPPRLPRPRPRPVQTPRP | 0.0297
24 | RRIRKRPPRLPRPRPRPWLKPRP | 0.0705
25 | RRIRLRPPRLPRPRPRPPWWPRP | 0.695

Row | Sequence | shrunken log2 fold change
26 | RRIRIRPPRLPRPRPRPCGDPRP | -0.0271
27 | RRIRHRPPRLPRPRPRPRVMPRP | 0.0966
28 | RRIRGRPPRLPRPRPRPNMMPRP | 0.0511
29 | RRIRQRPPRLPRPRPRPRVVPRP | 0.0149
30 | RRIRYRPPRLPRPRPRPCWDPRP | -0.0738
31 | RRIRCRPPRLPRPRPRPQPGPRP | 0.437
32 | RRIRYRPPRLPRPRPRPWHHPRP | -0.271
33 | RRIRDRPPRLPRPRPRPTWLPRP | 0.909
34 | RRIRRRPPRLPRPRPRPTANPRP | 0.589
35 | RRIRLRPPRLPRPRPRPDHAPRP | 0.0162
36 | RRIRGRPPRLPRPRPRPHHTPRP | -0.12
37 | RRIRYRPPRLPRPRPRPDEKPRP | -0.102
38 | RRIRDRPPRLPRPRPRPETQPRP | 0.476
39 | RRIRTRPPRLPRPRPRPFDAPRP | -0.343
40 | RRIRMRPPRLPRPRPRPYFPPRP | -0.213
41 | RRIRRRPPRLPRPRPRPHLQPRP | -0.0319
42 | RRIRSRPPRLPRPRPRPRDSPRP | -0.158
43 | RRIRYRPPRLPRPRPRPVIIPRP | -0.156
44 | RRIRWRPPRLPRPRPRPVRRPRP | 0.365
45 | RRIRERPPRLPRPRPRPHFNPRP | -0.744
46 | RRIRARPPRLPRPRPRPQTMPRP | 0.108
47 | RRIRCRPPRLPRPRPRPIGNPRP | -0.221
48 | RRIRFRPPRLPRPRPRPDKRPRP | -0.0786
49 | RRIRPRPPRLPRPRPRPQSGPRP | 0.259
50 | RRIRRRPPRLPRPRPRPYGRPRP | -0.0338

Row | Sequence | shrunken log2 fold change
51 | RRIRARPPRLPRPRPRPALQPRP | 0.354
52 | RRIRKRPPRLPRPRPRPGNAPRP | 0.418
53 | RRIRKRPPRLPRPRPRPIYRPRP | -0.0881
54 | RRIRARPPRLPRPRPRPMSFPRP | -0.0283
55 | RRIRYRPPRLPRPRPRPASTPRP | -0.0914
56 | RRIRNRPPRLPRPRPRPKTRPRP | 0.138
57 | RRIRERPPRLPRPRPRPFWNPRP | -0.51
58 | RRIRFRPPRLPRPRPRPTYRPRP | -8.67e-05
59 | RRIRIRPPRLPRPRPRPCTPPRP | -0.719
60 | RRIRSRPPRLPRPRPRPCLPPRP | -0.133
61 | RRIRERPPRLPRPRPRPWMMPRP | -0.139
62 | RRIRGRPPRLPRPRPRPGQEPRP | 0.974
63 | RRIRIRPPRLPRPRPRPHDWPRP | -0.317
64 | RRIRTRPPRLPRPRPRPTSNPRP | -0.43
65 | RRIRCRPPRLPRPRPRPWRVPRP | 0.149
66 | RRIRERPPRLPRPRPRPVHEPRP | -0.00127
67 | RRIRGRPPRLPRPRPRPGSIPRP | 0.185
68 | RRIRFRPPRLPRPRPRPVSWPRP | 0.44
69 | RRIRCRPPRLPRPRPRPYCTPRP | -0.503
70 | RRIRERPPRLPRPRPRPFAWPRP | 0.143
71 | RRIRFRPPRLPRPRPRPEDDPRP | -0.18
72 | RRIRSRPPRLPRPRPRPILQPRP | 0.0824
73 | RRIRWRPPRLPRPRPRPWLPPRP | -0.188
74 | RRIRFRPPRLPRPRPRPFYPPRP | -0.824
75 | RRIRGRPPRLPRPRPRPYFNPRP | -0.439

Row | Sequence | shrunken log2 fold change
76 | RRIRTRPPRLPRPRPRPYKTPRP | -0.315
77 | RRIRERPPRLPRPRPRPPIAPRP | 0.13
78 | RRIRGRPPRLPRPRPRPYEHPRP | 0.256
79 | RRIRRRPPRLPRPRPRPMKTPRP | 0.0796
80 | RRIRKRPPRLPRPRPRPSEHPRP | -0.183
81 | RRIRIRPPRLPRPRPRPKYHPRP | -0.532
82 | RRIRFRPPRLPRPRPRPELFPRP | 0.15
83 | RRIRVRPPRLPRPRPRPGHKPRP | -0.17
84 | RRIRMRPPRLPRPRPRPRWGPRP | 0.279
85 | RRIRCRPPRLPRPRPRPAEIPRP | -0.0903
86 | RRIRMRPPRLPRPRPRPSVYPRP | -0.335
87 | RRIRLRPPRLPRPRPRPSAEPRP | 0.342
88 | RRIRERPPRLPRPRPRPGGGPRP | 0.855
89 | RRIRVRPPRLPRPRPRPWLEPRP | 0.147
90 | RRIRQRPPRLPRPRPRPAEDPRP | 0.0312
91 | RRIRRRPPRLPRPRPRPQCAPRP | 0.647
92 | RRIRWRPPRLPRPRPRPTCIPRP | 0.248
93 | RRIRCRPPRLPRPRPRPEMTPRP | 0.517
94 | RRIRWRPPRLPRPRPRPSCHPRP | -0.066
95 | RRIRWRPPRLPRPRPRPVDYPRP | 0.0136
96 | RRIRERPPRLPRPRPRPWVSPRP | -0.0377
97 | RRIRVRPPRLPRPRPRPFMNPRP | -0.836
98 | RRIRERPPRLPRPRPRPYRMPRP | -0.113
99 | RRIRCRPPRLPRPRPRPVRHPRP | 0.403
100 | RRIRQRPPRLPRPRPRPKLLPRP | -0.153

Row | Sequence | shrunken log2 fold change
101 | RRIRVRPPRLPRPRPRPRWCPRP | 0.295
102 | RRIRPRPPRLPRPRPRPCMHPRP | -0.297
103 | RRIRFRPPRLPRPRPRPAMVPRP | -0.149
104 | RRIRCRPPRLPRPRPRPRDSPRP | -0.0484
105 | RRIRGRPPRLPRPRPRPRPYPRP | 0.246
106 | RRIRMRPPRLPRPRPRPQVIPRP | -0.0579
107 | RRIRVRPPRLPRPRPRPYRGPRP | -0.402
108 | RRIRLRPPRLPRPRPRPPRNPRP | 0.356
109 | RRIRHRPPRLPRPRPRPAWHPRP | -0.132
110 | RRIRWRPPRLPRPRPRPDAEPRP | 1.89
111 | RRIRLRPPRLPRPRPRPYTNPRP | -0.6
112 | RRIRARPPRLPRPRPRPKNIPRP | -0.127
113 | RRIRTRPPRLPRPRPRPPRNPRP | 1.27
114 | RRIRWRPPRLPRPRPRPTPFPRP | 0.153
115 | RRIRYRPPRLPRPRPRPKNAPRP | -0.186
116 | RRIRNRPPRLPRPRPRPHHMPRP | -1.41
117 | RRIRHRPPRLPRPRPRPSPNPRP | -0.302
118 | RRIRCRPPRLPRPRPRPISTPRP | -0.245
119 | RRIRRRPPRLPRPRPRPIHVPRP | 0.03
120 | RRIRPRPPRLPRPRPRPPGAPRP | 0.806
121 | RRIRDRPPRLPRPRPRPEEYPRP | 0.0208
122 | RRIRCRPPRLPRPRPRPCNGPRP | -0.00386
123 | RRIRCRPPRLPRPRPRPKHRPRP | -0.212
124 | RRIRSRPPRLPRPRPRPSLCPRP | -0.0295
125 | RRIRSRPPRLPRPRPRPEECPRP | 0.251
